{
  "source": "patent US5885797",
  "about": "“Polynucleotide sequences encoding proteins involved in myogenesis” (Fred Hutchinson Cancer Research Center, dated 1999)",
  "key": {"[1]": {"biological_target": "MyoD (full length, mouse) (mouse, UniProt P10085)", "test": "cell-based or functional assay"}, "[2]": {"biological_target": "T1, Myf5 (full length, mouse) (mouse, UniProt P24699)", "test": "cell-based or functional assay"}, "[3]": {"biological_target": "T2, Myogenin (full length, mouse) (mouse, UniProt P12979)", "test": "cell-based or functional assay"}, "[4]": {"biological_target": "T3, Lethal of Scute (AS-C T3) (Drosophila melanogaster (Fruit fly), UniProt P09774)", "T3 sequence": "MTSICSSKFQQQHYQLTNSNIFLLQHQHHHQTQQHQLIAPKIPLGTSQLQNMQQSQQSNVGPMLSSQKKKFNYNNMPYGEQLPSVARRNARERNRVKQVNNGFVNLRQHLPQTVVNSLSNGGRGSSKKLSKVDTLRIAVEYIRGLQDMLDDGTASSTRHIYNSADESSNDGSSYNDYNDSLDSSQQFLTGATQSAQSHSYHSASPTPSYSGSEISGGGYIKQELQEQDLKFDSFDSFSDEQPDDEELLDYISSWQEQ", "test": "yeast one-hybrid, strain L40, β-galactosidase reporter"}, "[5]": {"biological_target": "T3, Lethal of Scute (AS-C T3)", "test": "yeast one-hybrid, strain L40, β-galactosidase reporter", "remark": "listed apart in the source"}, "[6]": {"biological_target": "T2, Myogenin (full length, mouse)", "test": "yeast one-hybrid, strain L40, β-galactosidase reporter"}, "VP16-I-mfc": {"biological_target": "T4, VP16-I-mfc (mouse)", "T4 chain": "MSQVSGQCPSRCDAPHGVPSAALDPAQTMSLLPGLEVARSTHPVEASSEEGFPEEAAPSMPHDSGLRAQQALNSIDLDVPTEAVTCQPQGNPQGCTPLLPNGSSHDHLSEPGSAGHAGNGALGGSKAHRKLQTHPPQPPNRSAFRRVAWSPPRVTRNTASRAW", "test": "yeast hybrid assay, strain L40, β-galactosidase reporter"}, "VP16-I-mfb": {"biological_target": "T5, VP16-I-mfb (mouse)", "T5 chain": "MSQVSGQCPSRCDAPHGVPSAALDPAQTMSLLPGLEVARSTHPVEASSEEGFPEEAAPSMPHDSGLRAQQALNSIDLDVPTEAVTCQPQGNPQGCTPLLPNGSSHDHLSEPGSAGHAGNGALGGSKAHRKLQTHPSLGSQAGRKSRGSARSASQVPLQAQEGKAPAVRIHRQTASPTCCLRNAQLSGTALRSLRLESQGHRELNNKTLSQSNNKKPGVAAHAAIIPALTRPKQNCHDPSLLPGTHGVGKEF", "test": "yeast hybrid assay, strain L40, β-galactosidase reporter"}, "[7]": {"biological_target": "T1, Myf5 (full length, mouse)", "test": "column 'Interaction with Myf5' of Table 4 (yeast hybrid assay of Table 3)"}, "[8]": {"biological_target": "T1, Myf5 (full length, mouse)", "test": "yeast one-hybrid, strain L40, β-galactosidase reporter"}, "[9]": {"biological_target": "T1, Myf5 (full length, mouse)", "test": "yeast hybrid assay, strain L40, β-galactosidase reporter"}},
  "data": [
    {"binder": "I-mfa (other) MSQVSGQCPSRCDAPHGVPSAALDPAQTMSLLPGLEVARSTHPVEASSEEGFPEEAAPSMPHDSGLRAQQALNSIDLDVPTEAVTCQPQGNPQGCTPLLPNGSSHDHLSEPGSAGHAGNGALGGSKAHRKLQTHPSLGSQAGRKSRGSARSASQVPLQAQEDCCVHCILSCLFCEFLTLCNILLDCATCGSCSSEDSCLCCCCCGSGECADCDLPCDLDCGIVDACCESADCLEICMECCGLCFSS", "values": [
      {"measurement": "Relative CAT Activity (%), 4RCAT (10T/2 cells)", "setting": "[1]", "value": 56, "unit": "%"},
      {"measurement": "Relative CAT Activity (%), MCK-CAT (NIH3T3 cells)", "setting": "[1]", "value": 27, "unit": "%"},
      {"measurement": "Relative CAT Activity (%), 4RCAT (10T/2 cells)", "setting": "[2]", "value": 13, "unit": "%"},
      {"measurement": "Relative CAT Activity (%), MCK-CAT (NIH3T3 cells)", "setting": "[2]", "value": 9, "unit": "%"},
      {"measurement": "Relative CAT Activity (%), MCK-CAT (NIH3T3 cells)", "setting": "[3]", "value": 2, "unit": "%"}
    ]},
    {"binder": "LexA-I-mfb (other) MKALTARQQEVFDLIRDHISQTGMPPTRAEIAQRLGFRSPNAAEEHLKALARKGVIEIVSGASRGIRLLQEEEEGLPLVGRVAAGEPLLAQQHIEGHYQVDPSLFKPNADFLLRVSGMSMKDIGIMDGDLLAVHKTQDVRNGQVVVARIDDEVTVKRLKKQGNKVELLPENSEFKPIVVDLRQQSFTIEGLAVGVIRNGDWLMSQVSGQCPSRCDAPHGVPSAALDPAQTMSLLPGLEVARSTHPVEASSEEGFPEEAAPSMPHDSGLRAQQALNSIDLDVPTEAVTCQPQGNPQGCTPLLPNGSSHDHLSEPGSAGHAGNGALGGSKAHRKLQTHPSLGSQAGRKSRGSARSASQVPLQAQEGKAPAVRIHRQTASPTCCLRNAQLSGTALRSLRLESQGHRELNNKTLSQSNNKKPGVAAHAAIIPALTRPKQNCHDPSLLPGTHGVGKEF", "values": [
      {"measurement": "binding result", "setting": "[4]", "value": "no binding"},
      {"measurement": "β-galactosidase activity", "setting": "[5]", "value": 0.9, "unit": "arbitrary units"},
      {"measurement": "β-galactosidase activity", "setting": "[6]", "value": 0.4, "unit": "arbitrary units"},
      {"measurement": "β-galactosidase activity", "setting": "VP16-I-mfc", "value": "< 0.1", "unit": "arbitrary units"}
    ]},
    {"binder": "LexA-I-mfa (other) MKALTARQQEVFDLIRDHISQTGMPPTRAEIAQRLGFRSPNAAEEHLKALARKGVIEIVSGASRGIRLLQEEEEGLPLVGRVAAGEPLLAQQHIEGHYQVDPSLFKPNADFLLRVSGMSMKDIGIMDGDLLAVHKTQDVRNGQVVVARIDDEVTVKRLKKQGNKVELLPENSEFKPIVVDLRQQSFTIEGLAVGVIRNGDWLMSQVSGQCPSRCDAPHGVPSAALDPAQTMSLLPGLEVARSTHPVEASSEEGFPEEAAPSMPHDSGLRAQQALNSIDLDVPTEAVTCQPQGNPQGCTPLLPNGSSHDHLSEPGSAGHAGNGALGGSKAHRKLQTHPSLGSQAGRKSRGSARSASQVPLQAQEDCCVHCILSCLFCEFLTLCNILLDCATCGSCSSEDSCLCCCCCGSGECADCDLPCDLDCGIVDACCESADCLEICMECCGLCFSS", "values": [
      {"measurement": "β-galactosidase activity", "setting": "VP16-I-mfb", "value": 0.7, "unit": "arbitrary units"},
      {"measurement": "β-galactosidase activity", "setting": "VP16-I-mfc", "value": 0.5, "unit": "arbitrary units"}
    ]},
    {"binder": "LexA-I-mfc (other) MKALTARQQEVFDLIRDHISQTGMPPTRAEIAQRLGFRSPNAAEEHLKALARKGVIEIVSGASRGIRLLQEEEEGLPLVGRVAAGEPLLAQQHIEGHYQVDPSLFKPNADFLLRVSGMSMKDIGIMDGDLLAVHKTQDVRNGQVVVARIDDEVTVKRLKKQGNKVELLPENSEFKPIVVDLRQQSFTIEGLAVGVIRNGDWLMSQVSGQCPSRCDAPHGVPSAALDPAQTMSLLPGLEVARSTHPVEASSEEGFPEEAAPSMPHDSGLRAQQALNSIDLDVPTEAVTCQPQGNPQGCTPLLPNGSSHDHLSEPGSAGHAGNGALGGSKAHRKLQTHPPQPPNRSAFRRVAWSPPRVTRNTASRAW", "values": [
      {"measurement": "binding result", "setting": "[7]", "value": "no binding"},
      {"measurement": "β-galactosidase activity", "setting": "[8]", "value": 0.4, "unit": "arbitrary units"},
      {"measurement": "β-galactosidase activity", "setting": "[6]", "value": 0.3, "unit": "arbitrary units"},
      {"measurement": "β-galactosidase activity", "setting": "VP16-I-mfb", "value": "< 0.1", "unit": "arbitrary units"},
      {"measurement": "β-galactosidase activity", "setting": "[9]", "value": "< 0.1", "unit": "arbitrary units"}
    ]},
    {"binder": "LexA-I-mfa (87-202) (other) QPQGNPQGCTPLLPNGSSHDHLSEPGSAGHAGNGALGGSKAHRKLQTHPSLGSQAGRKSRGSARSASQVPLQAQEDCCVHCILSCLFCEFLTLCNILLDCATCGSCSSEDSCLCCC", "values": [
      {"measurement": "β-galactosidase activity", "setting": "VP16-I-mfb", "value": 0.2, "unit": "arbitrary units"},
      {"measurement": "β-galactosidase activity", "setting": "VP16-I-mfc", "value": "< 0.1", "unit": "arbitrary units"}
    ]},
    {"binder": "LexA-I-mfa (1-202) (other) MSQVSGQCPSRCDAPHGVPSAALDPAQTMSLLPGLEVARSTHPVEASSEEGFPEEAAPSMPHDSGLRAQQALNSIDLDVPTEAVTCQPQGNPQGCTPLLPNGSSHDHLSEPGSAGHAGNGALGGSKAHRKLQTHPSLGSQAGRKSRGSARSASQVPLQAQEDCCVHCILSCLFCEFLTLCNILLDCATCGSCSSEDSCLCCC", "values": [
      {"measurement": "β-galactosidase activity", "setting": "VP16-I-mfb", "value": "< 0.1", "unit": "arbitrary units"},
      {"measurement": "β-galactosidase activity", "setting": "VP16-I-mfc", "value": "< 0.1", "unit": "arbitrary units"}
    ]},
    {"binder": "LexA (other) MKALTARQQEVFDLIRDHISQTGMPPTRAEIAQRLGFRSPNAAEEHLKALARKGVIEIVSGASRGIRLLQEEEEGLPLVGRVAAGEPLLAQQHIEGHYQVDPSLFKPNADFLLRVSGMSMKDIGIMDGDLLAVHKTQDVRNGQVVVARIDDEVTVKRLKKQGNKVELLPENSEFKPIVVDLRQQSFTIEGLAVGVIRNGDWL", "values": [
      {"measurement": "β-galactosidase activity", "setting": "[6]", "value": 0.6, "unit": "arbitrary units"}
    ]},
    {"binder": "I-mfb (other) MSQVSGQCPSRCDAPHGVPSAALDPAQTMSLLPGLEVARSTHPVEASSEEGFPEEAAPSMPHDSGLRAQQALNSIDLDVPTEAVTCQPQGNPQGCTPLLPNGSSHDHLSEPGSAGHAGNGALGGSKAHRKLQTHPSLGSQAGRKSRGSARSASQVPLQAQEGKAPAVRIHRQTASPTCCLRNAQLSGTALRSLRLESQGHRELNNKTLSQSNNKKPGVAAHAAIIPALTRPKQNCHDPSLLPGTHGVGKEF", "values": [
      {"measurement": "Relative CAT Activity (%), 4RCAT (10T/2 cells)", "setting": "[1]", "value": 95, "unit": "%"},
      {"measurement": "Relative CAT Activity (%), MCK-CAT (NIH3T3 cells)", "setting": "[1]", "value": 87, "unit": "%"},
      {"measurement": "Relative CAT Activity (%), 4RCAT (10T/2 cells)", "setting": "[2]", "value": 105, "unit": "%"},
      {"measurement": "Relative CAT Activity (%), MCK-CAT (NIH3T3 cells)", "setting": "[2]", "value": 132, "unit": "%"},
      {"measurement": "Relative CAT Activity (%), MCK-CAT (NIH3T3 cells)", "setting": "[3]", "value": 101, "unit": "%"}
    ]},
    {"binder": "LexA-I-mfa (87-246) (other) QPQGNPQGCTPLLPNGSSHDHLSEPGSAGHAGNGALGGSKAHRKLQTHPSLGSQAGRKSRGSARSASQVPLQAQEDCCVHCILSCLFCEFLTLCNILLDCATCGSCSSEDSCLCCCCCGSGECADCDLPCDLDCGIVDACCESADCLEICMECCGLCFSS", "values": [
      {"measurement": "β-galactosidase activity", "setting": "VP16-I-mfb", "value": 0.6, "unit": "arbitrary units"}
    ]},
    {"binder": "LexA-I-mfa (29-246) (other) MSLLPGLEVARSTHPVEASSEEGFPEEAAPSMPHDSGLRAQQALNSIDLDVPTEAVTCQPQGNPQGCTPLLPNGSSHDHLSEPGSAGHAGNGALGGSKAHRKLQTHPSLGSQAGRKSRGSARSASQVPLQAQEDCCVHCILSCLFCEFLTLCNILLDCATCGSCSSEDSCLCCCCCGSGECADCDLPCDLDCGIVDACCESADCLEICMECCGLCFSS", "values": [
      {"measurement": "β-galactosidase activity", "setting": "VP16-I-mfb", "value": 0.7, "unit": "arbitrary units"},
      {"measurement": "β-galactosidase activity", "setting": "VP16-I-mfc", "value": 0.8, "unit": "arbitrary units"}
    ]},
    {"binder": "I-mfc (other) MSQVSGQCPSRCDAPHGVPSAALDPAQTMSLLPGLEVARSTHPVEASSEEGFPEEAAPSMPHDSGLRAQQALNSIDLDVPTEAVTCQPQGNPQGCTPLLPNGSSHDHLSEPGSAGHAGNGALGGSKAHRKLQTHPPQPPNRSAFRRVAWSPPRVTRNTASRAW", "values": [
      {"measurement": "Relative CAT Activity (%), 4RCAT (10T/2 cells)", "setting": "[1]", "value": 100, "unit": "%"},
      {"measurement": "Relative CAT Activity (%), MCK-CAT (NIH3T3 cells)", "setting": "[1]", "value": 100, "unit": "%"},
      {"measurement": "Relative CAT Activity (%), 4RCAT (10T/2 cells)", "setting": "[2]", "value": 101, "unit": "%"},
      {"measurement": "Relative CAT Activity (%), MCK-CAT (NIH3T3 cells)", "setting": "[2]", "value": 106, "unit": "%"},
      {"measurement": "Relative CAT Activity (%), MCK-CAT (NIH3T3 cells)", "setting": "[3]", "value": 111, "unit": "%"}
    ]}
  ]
}
